Assay results reported in patent US20260078416A1, “ORTHOGONAL METABOLIC FRAMEWORK FOR ONE-CARBON UTILIZATION” (Mojia Biotech Pte. Ltd., priority 2021, published 2026).

Key:
[1] = In vitro kinetic assay of purified HACS variants, coupled with CaAbfT formyl-CoA generation; substrate formaldehyde; assay type: biochemical; conditions: for Km: read-out: Km, app
Protocol: (§1) The kinetic assay was performed with a coupled reaction providing formyl-CoA from formate catalyzed by CoA transferase CaAbfT using acetyl-CoA as a CoA donor.
(§2) In vitro kinetic assay was comprised of 100 mM KPi pH 6.9, 10 mM MgCl2, 0.15 mM TPP, 2 mM acetyl-CoA, 1 μM CaAbfT, 0.25 μM HACS variants, and 20 mM sodium formate. Reactions were incubated at room temperature for 3 min to convert formate to formyl-CoA, and then specific concentration of aldehyde (specifically acetaldehyde or propionaldehyde here) was added to the reaction. After incubating another 3 min, 1/20 of the reaction volume of 10 M NaOH solution was added to terminate the reactions. After 30 min hydrolysis, 1/20 of the reaction volume of 10 N H2SO4 was added to neutralize the pH. Samples were centrifuged at 20817×g for 15 minutes and the supernatant analyzed by GC-MS as described below.
(§3) For this analysis, 0.15 of the reaction volume of internal standard methyl succinate was added to the samples. The resulting sample was extracted into 4 mL ethyl acetate by vigorous vortexing for 20 min. The organic phase was separated and evaporated to dryness under a stream of nitrogen. The residue was dissolved in 30 μL pyridine and 30 μL N,O-Bis(trimethylsilyl)trifluoroacetamide (BSTFA) and incubated at 60° C. for 15 minutes. Compound identification and analysis was performed by GC-MS using an Agilent 7890B Series Custom Gas Chromatography system equipped with a 5977B Inert Plus Mass Selective Detector Turbo EI Bundle (for identification) and an Agilent HP-5-ms capillary column (0.25 mm internal diameter, 0.25 μm film thickness, 30 m length). Samples were analyzed by GC (1 μL injection with a 20:1 split ratio) using helium as the carrier gas at a flowrate of 1.5 mL/min and the following temperature profile: initial 90° C. for 3 min; ramp at 15° C./min to 170° C.; ramp at 20° C./min to 300° C. and hold for 8 min. The injector and detector temperature were 250° C. and 350° C., respectively.
(§4) As hypothesized from Example 3 (FIG. 22B), JGI15 had lower Km with lower kcat with respect to formaldehyde in comparison with JGI20 (Table 8). With longer chain aldehydes JGI15 and JGI20 has lower Km (sub millimolar) to acetaldehyde and propionaldehyde compared to JGI23 and JGI24, while also lower Kcat as well. Which indicates they have stronger affinity to the aldehyde and lower enzymatic activity. JGI23 and JGI24 are promising as they have better activity (higher Kcat) which have a good potential to work better in vivo by improve their affinity to substrates (lower Km). Similarly, AcHACL as lower Km with acetone while JGI15 as better Kcat (Table 8).

[2] = In vitro kinetic assay of purified HACS variants; substrate acetaldehyde; assay type: biochemical; conditions: for Km: read-out: Km, app
Protocol: as §1, §2, §3, §4

[3] = system: glycolate production from formaldehyde and formate; test: Resting-cell bioconversion pathway 2 (HACS with CaAbfT), co-feeding formaldehyde and formate; assay type: cell-based, E. coli
From the text: We used glycolic acid (glycolate) productivity per cell density (uM glycolate/OD600) as indicator of HACS activity. Two different enzymatic routes for glycolate synthesis are explored. The first pathway (pathway 1) is similar to the pathway used for initial screening in Example 2 with addition of an extra gene, aldehyde dehydrogenase aldA from Escherichia coli (EcAldA) overexpressed to drive flux from glycolaldehyde to glycolate (FIG. 21A). In addition, HACS and LmACR-AldA are controlled under independent inducible promoters to investigate the impact of varying relative gene expressions (FIG. 21B). The second pathway (pathway 2) involves independent fluxes of formaldehyde and formyl-CoA allowing assessment of the enzyme activity with response to changing formaldehyde concentration only, while maintaining constant formyl-CoA flux. Formyl-CoA is generated by formic acid (formate) catalyzed by the acyl-CoA transferase from Clostridium aminobutyricum (CaAbfT) (FIG. 22A).
For the in vivo prototyping, we engineered vectors to independently control expression of HACS variants and the LmACR-EcAldA (pathway 1, FIG. 21A) or CaAbfT (pathway 2, FIG. 22A), with HACS under control of the IPTG-inducible T7 promoter in pCDFDuet-1 and LmACR-EcAldA or CaAbfT under control of a cumate-inducible T5 promoter in pETDuet-1 (FIG. 21B). As a host for these vectors, we used an engineered strain of E. coli based on MG1655(DE3) with knockouts for formaldehyde (ΔfrmA) and formate (ΔfdhF ΔfdnG ΔfdoG) oxidation as well as for glycolate utilization (ΔglcD)), which we expected could compete or interfere with the analysis of our pathway. […]
Cells from the above pre-cultures were then centrifuged (4000 rpm, 22° C.), washed with the above minimal media without any carbon source, and resuspended with 1 mL of above minimal media containing indicated amounts of carbon source. […] The cells were harvested after 3 hours for LmACR-EcAldA co-expression and 1 hour for CaAbfT co-expression by centrifugation and the supernatant analyzed by HPLC or GC-MS as described in EXAMPLE 2. […]

[4] = 0.5 mM formaldehyde and 20 mM formate co-fed

Row | Molecule | Kcat, app [1] | Km [1] | Kcat, app [2] | Km [2] | glycolate productivity under high formaldehyde concentration ([3]; 5 mM formaldehyde and 20 mM formate co-fed) | glycolate productivity relative to JGI20 [3, 4] | glycolate productivity relative to RuHACL [3, 4]
1 | JGI20: HACS variant; GenBank PWB41796.1 (protein) MGQITGAQIVARALKQQGVEYMFGIVGIPVIPIAMFAQREGIKFYGFRNEQSASYAAAAVGYLTGRPGVCLGVSGPGMIHGVAGMANAWSNCWPMILIGGANDSYQNGQGAFQEAPQIEAARPFAKYCARPDSLARLPFYVEQAVRTSIYGRPGAVYLDLPGDIITGAMEEEDVHFPPRCPDAPRMMAPQESIDAAMAALKSAERPLVIVGKGAAYSRAENEVREFLETTQLPYLASPMGKGVMPDDHPLSIAPARSAALLGADVILLMGARLNWMMHFGHPPRFDPKVRVIQMDISAEEIGTNVPTEVALVGDAKAITTQLNASLKQQPWQYPSETTWWTGLRKKIDENGATVAEMMADESVPMSYYRVYREIRDLIPNDAIIQNEGASTMDIGRTLMPNFLPRHRLDAGSFGTMGVGLGQAIAAAAVHPDKHVFCIEGDSAFGFSGMEVETAARYGMKNITFIIINNNGIGGGPDTLDPTRVPPSAYTPNAHYEKMAEIYGGKGYFVTEPSQLRPALEEAIKADKPAIVNIMISATSQRKPQQFAWLTR | 9.53 s⁻¹ | 21400 µM | 39.44 ± 3.95 s⁻¹ | 930 ± 150 µM | better glycolate productivity | – | –
2 | JGI15: HACS variant; GenBank HAK63664.1 (protein) MAKSEGKVNGATLMARALQQQGVQYMFGIVGFPVIPIAIAAQREGITYIGMRNEQSASYAAQAASYLTGRPQACLVVSGPGVVHALAGLANAQVNCWPMLLIGGASAIEQNGMGAFQEERQVLLASPLCKYAHQVERPERIPYYVEQAVRSALFGRPGAAYLDMPDDVILGEVEEAAVRPAATVGEPPRSLAPQENIEAALDALQSAKRPLVIVGKGMAWSRAENEVRQFIERTRLPFLATPMGKGVMPDDHPLSVGGARSHALQEADLVFLLGARFNWILHFGLPPRYSKDVRVIQLDLSAEEIGNNRQAEVALVGDGKAIVGQLNQALSSRQWFYPAETPWREAIAAKIAGNQAAVAPMIADNTSPMNYYRVYRDIAARLPRNAIIVGEGANTMDIGRTQMPNFEPRSRLDAGSYGTMGIGLGFAVAAAAVHPGRPVIAVQGDSAFGFSGMEFETAARYGMPIKVIILNNGGIGMGSPAPRDGQPGMPHALSHDARYERIAEAFGGAGFYVTDSAELGPALDAAMAFKGPAIVNIKIAATADRKPQQFNWHG | 5.98 s⁻¹ | 3870 µM | 22.50 ± 1.93 s⁻¹ | 290 ± 20 µM | – | 1.5 fold | 7 fold
